According to patent US20230287082A1 (published 2023):

Molecular target: T1, yeast surface displayed ΔB7-H6 (wild-type) (human, UniProt Q68D85 25-145)
T1 construct: also called wild-type ΔB7-H6 on yeast; not shown: Aga2p fusion partner of the pYD-derived vector
T1 sequence: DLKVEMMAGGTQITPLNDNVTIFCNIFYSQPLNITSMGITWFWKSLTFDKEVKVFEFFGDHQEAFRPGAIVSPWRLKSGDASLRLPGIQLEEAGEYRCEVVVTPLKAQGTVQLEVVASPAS
Experiment: yeast surface display, flow cytometry

B1: human NKp30 (receptor, UniProt O14931 19-135, looked up)
chain: LWVSQPPEIRTLEGSSAFLPCSFNASQGRLAIGSVTWFRDEVVPGKEVRNGTPEFRGRLAPLASSRFLHDHQAELHIRDVRGHDASIYVCRVEVLGLGVGTGNGTRLVVEKEHPQLG
notes: Soluble analyte in BLI; also called recombinant NKp30; his-tagged NKp30 (Abcam)
binding result: binds
